Assay results: PMC4277767 (ACS Synthetic Biology, 2014)

Target: LexA-CRY2 (CRY2 fused to the LexA DNA binding domain) (Arabidopsis, UniProt Q96524 1-612)
Assay: two-hybrid

LexA-CRY2 (CRY2 fused to the LexA DNA binding domain), sequence (Q96524 whole entry, the tested form may be a part): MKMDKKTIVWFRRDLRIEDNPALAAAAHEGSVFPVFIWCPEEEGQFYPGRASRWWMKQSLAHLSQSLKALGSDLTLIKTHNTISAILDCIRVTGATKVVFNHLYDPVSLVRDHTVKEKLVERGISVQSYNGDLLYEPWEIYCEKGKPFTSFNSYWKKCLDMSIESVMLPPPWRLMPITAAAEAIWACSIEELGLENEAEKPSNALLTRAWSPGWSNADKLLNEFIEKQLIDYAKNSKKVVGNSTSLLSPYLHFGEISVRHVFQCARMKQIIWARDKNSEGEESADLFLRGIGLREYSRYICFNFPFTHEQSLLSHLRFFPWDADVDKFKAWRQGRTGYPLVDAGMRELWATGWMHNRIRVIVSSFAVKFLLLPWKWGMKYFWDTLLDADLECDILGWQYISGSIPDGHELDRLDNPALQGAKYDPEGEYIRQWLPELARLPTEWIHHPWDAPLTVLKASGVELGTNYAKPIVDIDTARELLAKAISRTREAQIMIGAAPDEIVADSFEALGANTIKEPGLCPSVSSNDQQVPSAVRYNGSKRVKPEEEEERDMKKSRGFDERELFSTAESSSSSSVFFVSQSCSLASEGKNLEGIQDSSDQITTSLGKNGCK

B1: VP16-CIB1 (CIB1 fused to a VP16 activation domain) (natural protein, Arabidopsis, UniProt Q8GY61 1-335, looked up)
chain: MNGAIGGDLLLNFPDMSVLERQRAHLKYLNPTFDSPLAGFFADSSMITGGEMDSYLSTAGLNLPMMYGETTVEGDSRLSISPETTLGTGNFKKRKFDTETKDCNEKKKKMTMNRDDLVEEGEEEKSKITEQNNGSTKSIKKMKHKAKKEENNFSNDSSKVTKELEKTDYIHVRARRGQATDSHSIAERVRREKISERMKFLQDLVPGCDKITGKAGMLDEIINYVQSLQRQIEFLSMKLAIVNPRPDFDMDDIFAKEVASTPMTVVPSPEMVLSGYSHEMVHSGYSSEMVNSGYLHVNPMQQVNTSSDPLSCFNNGEAPSMWDSHVQNLYGNLGV
- fold stimulation of reporter activity by blue light over dark: ~100 fold
